B1: Biotin-DIP-FXa (enzyme)
chain 1: ANSFLEEMKKGHLERECMEETCSYEEAREVFEDSDKTNEFWNKYKDGDQCETSPCQNQGKCKDGLGEYTCTCLEGFEGKNCELFTRKLCSLDNGDCDQFCHEEQNSVVCSCARGYTLADNGKACIPTGPYPCGKQTLER
chain 2: IVGGQECKDGECPWQALLINEENEGFCGGTILSEFYILTAAHCLYQAKRFKVRVGDRNTEQEEGGEAVHEVEVVIKHNRFTKETYDFDIAVLRLKTPITFRMNVAPACLPERDWAESTLMTQKTGIVSGFGRTHEKGRQSTRLKMLEVPYVDRNSCKLSSSFIITQNMFCAGYDTKQEDACQGDSGGPHVTRFKDTYFVTGIVSWGEGCARKGKYGIYTKVTAFLKWIDRSMKTRGLPKAKSHAPEVITSSPLK
modifications: treated with diisoproylfluorophosphate until >95% of its amidolytic activity was lost and then biotinylated; biotinylated (sites not given)
notes: Used at 3 µg/ml as probe in ligand blots; also called FXa treated with diisopropylfluorophosphate and biotinylated
B2: Biotin-FX (other)
chain 1: B1 chain 1
chain 2: SVAQATSSSGEAPDSITWKPYDAADLDPTENPFDLLDFNQTQPERGDNNLTRIVGGQECKDGECPWQALLINEENEGFCGGTILSEFYILTAAHCLYQAKRFKVRVGDRNTEQEEGGEAVHEVEVVIKHNRFTKETYDFDIAVLRLKTPITFRMNVAPACLPERDWAESTLMTQKTGIVSGFGRTHEKGRQSTRLKMLEVPYVDRNSCKLSSSFIITQNMFCAGYDTKQEDACQGDSGGPHVTRFKDTYFVTGIVSWGEGCARKGKYGIYTKVTAFLKWIDRSMKTRGLPKAKSHAPEVITSSPLK
modifications: biotinylated (sites not given)
B3: protein S monomers (purified) (other, UniProt P07225 42-676, looked up)
chain: ANSLLEETKQGNLERECIEELCNKEEAREVFENDPETDYFYPKYLVCLRSFQTGLFTAARQSTNAYPDLRSCVNAIPDQCSPLPCNEDGYMSCKDGKASFTCTCKPGWQGEKCEFDINECKDPSNINGGCSQICDNTPGSYHCSCKNGFVMLSNKKDCKDVDECSLKPSICGTAVCKNIPGDFECECPEGYRYNLKSKSCEDIDECSENMCAQLCVNYPGGYTCYCDGKKGFKLAQDQKSCEVVSVCLPLNLDTKYELLYLAEQFAGVVLYLKFRLPEISRFSAEFDFRTYDSEGVILYAESIDHSAWLLIALRGGKIEVQLKNEHTSKITTGGDVINNGLWNMVSVEELEHSISIKIAKEAVMDINKPGPLFKPENGLLETKVYFAGFPRKVESELIKPINPRLDGCIRSWNLMKQGASGIKEIIQEKQNKHCLVTVEKGSYYPGSGIAQFHIDYNNVSSAEGWHVNVTLNIRPSTGTGVMLALVSGNNTVPFAVSLVDSTSEKSQDILLSVENTVIYRIQALSLCSDQQSHLEFRVNRNNLELSTPLKIETISHEDLQRQLAVLDKAMKAKVATYLGGLPDVPFSATPVNAFYNGCMEVNINGVQLDLDEAISKHNDIRAHSCPSVWKKTKNS
B4: protein S dimers (purified) (other, UniProt P07225 42-676, looked up)
chain: B3 chain
B5: monomeric protein S in plasma (other, human, UniProt P07225 42-676, looked up)
chain: B3 chain
notes: mature; also called monomers

In assay [1] the target is FXa/FVa (prothrombinase components) (UniProt P00742). Nature of the assay: cell-based or functional assay.
Chain of FXa/FVa (prothrombinase components) (UniProt P00742) (P12259 29-737 limits assumed, chain 3 of 2): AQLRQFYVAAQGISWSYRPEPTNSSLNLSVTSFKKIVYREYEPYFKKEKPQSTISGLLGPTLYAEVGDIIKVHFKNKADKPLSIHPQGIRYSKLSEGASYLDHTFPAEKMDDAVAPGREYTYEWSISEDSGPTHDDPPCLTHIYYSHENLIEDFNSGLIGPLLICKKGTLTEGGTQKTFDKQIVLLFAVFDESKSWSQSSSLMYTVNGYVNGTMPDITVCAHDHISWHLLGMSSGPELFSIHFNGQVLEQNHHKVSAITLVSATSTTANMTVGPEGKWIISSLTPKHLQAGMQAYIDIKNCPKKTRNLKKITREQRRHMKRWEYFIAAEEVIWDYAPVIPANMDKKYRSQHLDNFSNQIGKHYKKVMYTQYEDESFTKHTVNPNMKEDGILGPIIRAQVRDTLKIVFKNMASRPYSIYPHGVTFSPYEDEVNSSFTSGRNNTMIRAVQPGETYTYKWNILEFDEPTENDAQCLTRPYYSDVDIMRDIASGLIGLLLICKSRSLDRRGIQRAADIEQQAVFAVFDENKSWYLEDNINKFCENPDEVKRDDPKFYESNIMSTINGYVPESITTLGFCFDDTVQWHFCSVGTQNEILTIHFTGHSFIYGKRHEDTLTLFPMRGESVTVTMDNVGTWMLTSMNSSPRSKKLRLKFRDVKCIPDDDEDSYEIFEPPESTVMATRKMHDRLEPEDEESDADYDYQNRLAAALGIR
Chain of FXa/FVa (prothrombinase components) (UniProt P00742) (P12259 1574-2224 limits assumed, chain 4 of 2): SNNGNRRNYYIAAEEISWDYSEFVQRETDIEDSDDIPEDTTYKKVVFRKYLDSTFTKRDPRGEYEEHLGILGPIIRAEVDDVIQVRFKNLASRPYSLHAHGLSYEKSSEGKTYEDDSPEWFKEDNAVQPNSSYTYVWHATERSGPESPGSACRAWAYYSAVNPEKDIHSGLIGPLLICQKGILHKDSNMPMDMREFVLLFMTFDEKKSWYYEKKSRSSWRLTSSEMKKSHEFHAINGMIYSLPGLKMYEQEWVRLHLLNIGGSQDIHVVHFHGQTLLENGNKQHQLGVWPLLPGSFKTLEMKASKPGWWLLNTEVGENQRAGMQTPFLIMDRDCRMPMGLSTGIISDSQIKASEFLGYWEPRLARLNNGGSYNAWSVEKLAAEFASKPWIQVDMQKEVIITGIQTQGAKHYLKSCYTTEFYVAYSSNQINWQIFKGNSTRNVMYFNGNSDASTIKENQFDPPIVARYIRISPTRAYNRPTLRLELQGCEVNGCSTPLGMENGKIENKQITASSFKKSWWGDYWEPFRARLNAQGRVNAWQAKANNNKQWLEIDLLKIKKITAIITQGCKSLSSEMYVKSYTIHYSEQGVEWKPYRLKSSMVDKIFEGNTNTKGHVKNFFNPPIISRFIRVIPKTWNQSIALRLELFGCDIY
The target of the next assay is T1, human protein C (human, UniProt P04070 43-197; P04070 200-461).
T1 construct: Control vitamin K-dependent protein on the ligand blot (200 ng)
T1 sequence (P04070 43-197, chain 1 of 2): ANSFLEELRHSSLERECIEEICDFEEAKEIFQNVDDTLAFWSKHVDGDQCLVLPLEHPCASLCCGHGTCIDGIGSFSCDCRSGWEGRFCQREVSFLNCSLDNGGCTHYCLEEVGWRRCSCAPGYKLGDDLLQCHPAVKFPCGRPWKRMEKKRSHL
T1 sequence (P04070 200-461, chain 2 of 2): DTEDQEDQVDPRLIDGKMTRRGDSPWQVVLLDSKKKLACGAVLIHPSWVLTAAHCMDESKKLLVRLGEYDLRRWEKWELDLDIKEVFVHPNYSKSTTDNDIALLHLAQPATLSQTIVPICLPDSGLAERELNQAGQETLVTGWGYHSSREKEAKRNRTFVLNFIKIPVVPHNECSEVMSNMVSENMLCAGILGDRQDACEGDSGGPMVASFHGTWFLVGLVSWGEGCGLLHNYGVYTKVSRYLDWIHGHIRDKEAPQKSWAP
The assay can be described thus: ligand blot from native 10% PAGE, biotin-DIP-FXa, streptavidin-HRP. As for the experimental part:
(§1) For ligand blotting, FXa was treated with diisoproylfluorophosphate until >95% of its amidolytic activity was lost and then biotinylated as described (Heeb, et al. (1994) Proc. Natl. Acad. Sci. USA 91, 2728-2732). Blots containing 200 ng of protein S or control proteins were incubated with 3 μg/ml of this DIP-FXa for 1 h, followed by streptavidin-horse radish peroxidase (Pierce), chemiluminescent substrate and film exposure.
(§2) Ligand blotting of DIP-FXa to protein S monomers and dimers - - - Biotin-DIP-FXa could ligand blot to both protein S monomers and dimers, but not to two other vitamin K-dependent proteins (FIG. 3). DIP-FXa ligand blotted to monomers and multimers of protein S on native 10% PAGE, but not to human protein C or recombinant human Gas6. […] Note that protein S no. 1 has few monomers compared to protein S no. 2,and protein S no. 2 is <50% monomeric. (see FIG. 4).

A further assay addresses T2, recombinant human Gas6 (human, UniProt Q14393 49-678, limits assumed).
T2 construct: Control vitamin K-dependent protein on the ligand blot (200 ng)
T2 sequence (looked up): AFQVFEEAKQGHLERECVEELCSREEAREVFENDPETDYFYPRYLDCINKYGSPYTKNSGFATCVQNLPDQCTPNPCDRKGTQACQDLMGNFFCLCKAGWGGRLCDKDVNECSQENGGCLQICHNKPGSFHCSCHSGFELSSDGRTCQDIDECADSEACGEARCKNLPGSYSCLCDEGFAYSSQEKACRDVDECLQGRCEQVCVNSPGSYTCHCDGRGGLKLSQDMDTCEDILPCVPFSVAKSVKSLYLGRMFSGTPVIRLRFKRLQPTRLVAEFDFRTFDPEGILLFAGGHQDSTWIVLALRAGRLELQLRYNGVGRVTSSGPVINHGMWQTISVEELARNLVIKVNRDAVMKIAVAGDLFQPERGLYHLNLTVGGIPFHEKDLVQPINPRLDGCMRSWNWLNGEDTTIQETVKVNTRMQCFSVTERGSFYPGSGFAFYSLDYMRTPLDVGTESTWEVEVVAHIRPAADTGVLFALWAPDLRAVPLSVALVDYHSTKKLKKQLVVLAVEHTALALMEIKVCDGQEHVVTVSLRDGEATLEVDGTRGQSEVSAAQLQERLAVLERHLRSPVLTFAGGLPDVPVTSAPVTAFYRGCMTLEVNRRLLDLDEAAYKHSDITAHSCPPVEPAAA
The description is as above. How it is done:
as §1, §2

Assay [2] has as its target T3, multimeric protein S in plasma (human, UniProt P07225 42-676).
T3 construct: mature; also called protein S multimers in plasma; putative protein S multimers
T3 sequence (looked up): B3 chain
The assay can be described thus: ligand blot from native 4-15% PAGE of Sephacryl-300 fractions of hirudin-plasma. How it is done:
(§3) Gel filtration - - - Purified protein S preparations or hirudin-plasma (200 μl ) were fractionated on a 1×30 cm Superose-6 HR column using Fast Performance Liquid Chromatography (Amersham-Pharmacia, Piscattaway, N.J.) at a flow rate of 0.4 ml/min in Hepes-buffered saline (HBS). Hirudin and citrated plasmas (300 ul) were each mixed with 700 μl of 50 mM benzamidine and fractionated on a 1.6×60 cm Sephacryl-300 column at a flow rate of 0.4 ml/min in Tris-buffered saline. Fractions were analyzed for protein S antigen by ELISA, for protein S multimers by native PAGE, and for PS-direct. ELISAs were also performed on the fractions for FV, FX, and C4BP antigens
(§4) To further separate protein S forms in plasma, hirudin-plasma and citrated plasma were each subjected to gel filtration on a larger column (FIGS. 8B and 8C). […] Biotin-FXa could ligand blot (Heeb, et al. Protein S binds to and inhibits factor Xa. Proc Natl Acad Sci USA. 1994;91:2728-2732) to PS-C4BP, multimeric and monomeric protein S in fractionated hirudin plasma (FIG. 8C).

For assay [3], the target named is B5. Described as above. How it is done: as §3, §4
The target in assay [4] is T4, Protein S-C4b-binding protein complex in fractionated hirudin-plasma (human, UniProt P07225 42-676; P04003 49-597; P20851 18-252).
T4 construct: Native complex from plasma; also called PS-C4BP; Cx
T4 sequence (looked up) 1: B3 chain
T4 sequence (looked up) 2: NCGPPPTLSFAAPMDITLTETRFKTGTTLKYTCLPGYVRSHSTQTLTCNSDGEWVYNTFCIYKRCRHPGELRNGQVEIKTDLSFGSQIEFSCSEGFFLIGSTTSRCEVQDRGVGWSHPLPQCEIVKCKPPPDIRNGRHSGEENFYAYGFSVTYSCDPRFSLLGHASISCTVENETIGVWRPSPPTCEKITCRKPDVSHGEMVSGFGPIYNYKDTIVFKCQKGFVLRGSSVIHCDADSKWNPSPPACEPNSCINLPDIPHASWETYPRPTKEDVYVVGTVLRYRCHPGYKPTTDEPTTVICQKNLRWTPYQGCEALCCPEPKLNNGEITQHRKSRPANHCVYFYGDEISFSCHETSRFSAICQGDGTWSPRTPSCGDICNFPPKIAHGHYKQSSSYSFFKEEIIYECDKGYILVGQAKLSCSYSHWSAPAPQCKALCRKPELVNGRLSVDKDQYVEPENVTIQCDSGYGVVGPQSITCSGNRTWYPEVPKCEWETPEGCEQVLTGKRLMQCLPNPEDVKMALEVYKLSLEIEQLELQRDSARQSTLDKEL
T4 sequence (looked up) 3: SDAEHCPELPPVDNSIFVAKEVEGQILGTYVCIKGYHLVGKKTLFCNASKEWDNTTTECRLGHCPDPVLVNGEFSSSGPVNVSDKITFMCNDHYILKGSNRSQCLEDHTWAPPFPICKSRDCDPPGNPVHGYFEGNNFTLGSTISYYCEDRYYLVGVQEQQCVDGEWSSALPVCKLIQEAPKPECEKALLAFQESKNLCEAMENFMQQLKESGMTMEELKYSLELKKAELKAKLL
Described as above. How it is done:
as §3, §4

Assay [5] deals with FXa/FVa (prothrombinase components) (UniProt P00742 41-179; P00742 235-488; P12259 29-737; P12259 1574-2224). The assay can be described thus: cell-based or functional assay.
Chain of FXa/FVa (prothrombinase components) (UniProt P00742 41-179; P00742 235-488; P12259 29-737; P12259 1574-2224) (P12259 29-737 limits assumed, chain 3 of 2): as the sequence (P12259 29-737 limits assumed, chain 3 of 2) above
Chain of FXa/FVa (prothrombinase components) (UniProt P00742 41-179; P00742 235-488; P12259 29-737; P12259 1574-2224) (P12259 1574-2224 limits assumed, chain 4 of 2): as the sequence (P12259 1574-2224 limits assumed, chain 4 of 2) above
In the next assay the target is T5, C4b-binding protein (human, UniProt P04003 49-597; P20851 18-252).
T5 construct: Endogenous plasma protein; also called C4BP
T5 sequence (looked up) 1: T4 sequence (looked up) 2
T5 sequence (looked up) 2: T4 sequence (looked up) 3
Nature of the assay: complex in hirudin-plasma, Superose-6 gel filtration and immunoblot from native PAGE. As for the experimental part:
as §3
Fractionation of plasma - - - When hirudin-plasma was gel-filtered on Superose-6 (FIG. 8A), forms that could be identified by immunoblotting from native PAGE were PS-C4BP complexes (fractions 31-39), followed by putative protein S multimers of three types (arrows), and monomeric protein S (fractions 47-54). A smeared band near the void volume marked with ? […] The original quantity of multimers may have been greater than seen in FIG. 8A, since there was evidence of dissociation to monomer in most fractions. […]
(In general: SEC sorts molecules by how far they enter the pores of the column.)

As to “protein S forms >Trimer (from UniProt P07225 42-676)”, in assay [1], the Inhibition of prothrombinase, IC50 @ 25 µM PL, nM (total moles of protein S monomeric subunits) amounted to 111 nM and the Inhibition of prothrombinase, IC50 @ 25 µM PL, nM of specific form was 28 nM.
The corresponding values for “protein S Dimer-Trimer fraction (from UniProt P07225 42-676)” are 116 nM and 46 nM.
As to “protein S Trimer (from UniProt P07225 42-676)”, in assay [1], the Inhibition of prothrombinase, IC50 @ 25 µM PL, nM (total moles of protein S monomeric subunits) was determined as 113 nM and the Inhibition of prothrombinase, IC50 @ 25 µM PL, nM of specific form is 38 nM.
Turning to B1, the binding result with human protein C and in the assay with recombinant human Gas6 was “no binding” in each case.
Consider B2, for which the binding result in assay [2], in assay [3] and in assay [4] was “no binding” each time.
As to B3, in assay [5], the “Inhibition of prothrombinase, IC50 @ 25 µM PL, nM (total moles of protein S monomeric subunits)” value was found to be 119 nM and the “Inhibition of prothrombinase, IC50 @ 25 µM PL, nM of specific form” value was 119 nM of specific form.
The corresponding values for B4 are 109 nM and 54 nM of specific form.
With B5, the binding result with C4b-binding protein was “binds”.

Source of the values: patent publication US20070077603A1 (published 2007).
